In doi:10.1101/2020.06.17.157404:

What was measured:
[1] = target: CFP:MtRH10 (Medicago truncatula); assay: FRET or BRET
[2] = target: RPL7:CFP (Medicago truncatula); assay: FRET or BRET

mean CFP lifetime of the donor with the acceptor (2.86 ns +/- 0.02 without) [1]: 2.53 ns | mean CFP lifetime of the donor with the acceptor (2.83 ns +/- 0.03 without) [2]: 2.46 ns
Substance: AeSSP1256:YFP (natural protein)
